1 molecule from patent US12692310B2, “ASIC1 channel antagonist antibody” (ShanghaiTech University, priority 2019, dated 2026) can be followed below.

The subject of experiment [1] is primary cortical neurons from the ASIC1a KO mice (ASIC1a−/−). The experiment can be described thus: ICC staining of primary cortical neurons from ASIC1a KO mice. The format is cell-based, mouse. As for the experimental part: Cell Culture. The CHO-K1 cell line (#CRL-9618; ATCC) was maintained in an F-12k media (#21127022; Gibco) containing 10% (vol/vol) FBS (#1600074; Gibco), whereas the FreeStyle 293F (#R79007; ThermoFisher Scientific) cell line was cultured in a Freestyle 293 expression media (#12338026; Thermo-Fisher Scientific). Spodoptera frugiperda 9 (Sf9) cells (#12659017; Thermo-Fisher Scientific) was cultured at 27° C. in an ESF921 media (#96-001-01; Expression Systems). Primary cortical neurons dissected from E18-d-old C57 BL/6 mice or ASIC1a^−/− mice were maintained in a Neurobasal media (#21103049; Gibco) supplemented with B27 (#17504044; Gibco) and Glutamx I (#35050061; Gibco). The CHO-K1/hASIC1a stable cell line overexpressing the full-length hASIC1a (1-528 amino acids) channel was generated as follows: The cDNA of the full-length hASIC1a with a C-terminal eYFP fusion or a C-terminal mCherry fusion was constructed, cloned into a pCDNA3.1-Neo expressing vector, and transfected into the CHO-K1 cells using Lipofectin 2000. The CHO-K1/hASIC1a stable cell line was selected by the antibiotic, geneticin (up to 1 mg/mL), and validated by the fused fluorescence proteins eYFP (λex=488 nm; λem=528 nm) or mCherry fluorescence (λex=587 nm; λem=610 nm) using flow cytometry. Over 80% positive cells survived when cultured in the presence of 200 µg/mL geneticin for 30 days. […]

A further experiment addresses T1, hASIC1a (Homo sapiens, UniProt P78348).
T1 construct: expressed in transfected cells
T1 sequence (P78348 1-528): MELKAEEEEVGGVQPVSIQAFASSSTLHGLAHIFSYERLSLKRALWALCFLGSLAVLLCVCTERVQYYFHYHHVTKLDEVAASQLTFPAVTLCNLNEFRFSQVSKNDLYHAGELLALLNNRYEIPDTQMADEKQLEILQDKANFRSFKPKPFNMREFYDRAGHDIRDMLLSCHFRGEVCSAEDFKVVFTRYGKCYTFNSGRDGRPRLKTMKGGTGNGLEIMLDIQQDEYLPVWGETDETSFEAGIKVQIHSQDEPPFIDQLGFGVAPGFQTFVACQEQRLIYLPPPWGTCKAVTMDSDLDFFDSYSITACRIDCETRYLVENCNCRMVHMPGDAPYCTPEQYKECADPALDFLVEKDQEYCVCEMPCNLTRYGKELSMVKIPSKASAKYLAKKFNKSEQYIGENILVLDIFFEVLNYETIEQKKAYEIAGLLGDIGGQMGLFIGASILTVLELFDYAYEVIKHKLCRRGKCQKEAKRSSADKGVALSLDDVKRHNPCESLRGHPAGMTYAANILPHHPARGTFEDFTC
The experiment can be described thus: Whole-cell patch clamp, acid-induced hASIC1a currents in stable CHO-K1 cells. It is filed as cell-based. As for the experimental part: Electrophysiological Experiments. The inward cellular ASIC1a current was recorded from a single cell using standard whole-cell recording techniques by a patch-clamp amplifier (Axon 200B; Axon Instruments). Membrane currents were sampled and analyzed using a Digidata 1320A interface and a personal computer with Clampex and Clampfit software (Version 9.0.1; Axon Instruments). For a typical experiment, the extracellular fluid (ECF) used contained 150 mM NaCl, 5 mM KCl, 10 mM HEPES, 10 mM D-glucose, 2 mM CaCl2, and 1.0 mM MgCl2, with the osmotic pressure in the range of 320-335 mOsm, and pH 7.4 adjusted with 5 M NaOH. Patch electrodes (4-6 MΩ) contained 30 mM NaCl, 120 mM KCl, 0.5 mM CaCl2, 1 mM MgCl2, 10 mM HEPES, 2 mM MgATP, and 5 mM EGTA (pH 7.2 adjusted with 5 M KOH) at 300 mOsm. The ASIC1a activating ECF is identical to the normal ECF, except that MES was used to replace HEPES to maintain the ECF at pH 6.0. A coverslip with discretely distributed individual CHO-ASIC1a stable cells (6H7) on the surface was placed into a recording chamber under a constant perfusion (~2-3 mL/min) generated by an ALA 8 channel perfusion system (ALA Scientific Instruments Inc.) mounted on an inverted microscope. After achieving the break-in (whole-cell) configuration, the cell was voltage clamped at a holding potential of −70 mV. The normal ECF (pH 7.4) was first perfused onto the patched cell, and then, the activating ECF of pH 6.0 was rapidly applied to elicit a maximum inward ASIC1a current as control current. When testing the inhibition effect of the antibody, ECFs of pH 7.4 containing different concentrations of ASC06-IgG1 were perfused from low to high concentration into the recording chamber for 10-15 min. To measure the inhibition of the current, the activating ECFs of pH 6.0 containing the corresponding concentrations of the testing antibodies were applied to the same patched 6H7 cell to generate the inward currents that can be normalized to the control current of the same cell. […] Data acquired from four to five cells were used for statistical calculation of inhibition effects.
The function of ASC06-IgG1 was characterized using electrophysiology approach. The effect of ASC06-IgG1 antibody on the acid-induced, hASIC1a-mediated electrical current in cells was analyzed. PcTx1 was used as a positive control. […] The amplitudes of the hASIC1a-mediated inward currents of the stable cells were recorded and quantitated in the absence and presence of ASC06-IgG1, with venom peptide PcTx1 (100 nM) used as positive control. […] Unlike the sustained inhibition with the antibody after washing, the inhibition with PcTx1 could be readily washed out within 5 minutes (FIG. 5C).
For orientation: Patch clamp records ionic current or voltage across a cell membrane.

B1: ASC06-IgG1: ASC06 antibody converted into a full length IgG1 form (antibody, V domains shown)
VH: QVQLQQSGGGLVQPGGSLRLSCAASGFTFSSYAMSWVRQAPGKGLEWVSAISGSGGSTYYADSVKGRFTISRDNSKNTLYLQMNSLRAEDTAVYYCAKDSFYGYSKGDWGQGTLVTVSS
VL: QSALTQPASVSGSPGQSITISCTGTSSDVGAYNYVSWYQQQPGKAPKLMIYGVSNRPSGVSNRFSGSKSGNAASLTISGLQAEDEADYYCSSYTSSSTYVFGTGTKLTVLG
With B1, the “binding to KO neurons transfected with hASIC1a-mCherry” value in experiment [1] (transfected with hASIC1a-mCherry) was “binding occurs in the postsynaptic dendrites”. Further, the “binding to primary neurons from the KO mice” value in experiment [1] (untransfected ASIC1a−/− neurons) was “no apparent binding”. Moreover, in the experiment with hASIC1a (after washing), the “duration of sustained inhibition during washout” value came to 30 min. Also, the “maximal inhibition of the acid (pH 6.0)-induced currents” value with hASIC1a (dose-dependent) was “up to 80%”.
